Patent US20250163162A1

T1: IL10Rα and IL2Rγ on human primary cells (CD8 T cells, CD4 T cells, monocytes) (human) (UniProt Q13651)
T1 sequence (looked up) 1: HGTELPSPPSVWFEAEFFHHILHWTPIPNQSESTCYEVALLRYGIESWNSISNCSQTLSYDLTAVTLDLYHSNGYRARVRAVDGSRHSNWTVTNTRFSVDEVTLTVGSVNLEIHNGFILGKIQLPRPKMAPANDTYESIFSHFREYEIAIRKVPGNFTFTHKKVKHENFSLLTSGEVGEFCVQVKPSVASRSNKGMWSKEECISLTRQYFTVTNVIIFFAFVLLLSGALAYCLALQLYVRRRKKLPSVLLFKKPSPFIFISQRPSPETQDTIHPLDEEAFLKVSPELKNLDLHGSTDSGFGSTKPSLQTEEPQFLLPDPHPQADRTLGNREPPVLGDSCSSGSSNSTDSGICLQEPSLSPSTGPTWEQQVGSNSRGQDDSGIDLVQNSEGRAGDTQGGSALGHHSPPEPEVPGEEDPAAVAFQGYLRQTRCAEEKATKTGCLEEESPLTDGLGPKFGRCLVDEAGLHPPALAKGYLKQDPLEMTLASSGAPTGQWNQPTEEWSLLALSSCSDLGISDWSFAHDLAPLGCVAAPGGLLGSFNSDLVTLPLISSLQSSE
T1 sequence (looked up) 2: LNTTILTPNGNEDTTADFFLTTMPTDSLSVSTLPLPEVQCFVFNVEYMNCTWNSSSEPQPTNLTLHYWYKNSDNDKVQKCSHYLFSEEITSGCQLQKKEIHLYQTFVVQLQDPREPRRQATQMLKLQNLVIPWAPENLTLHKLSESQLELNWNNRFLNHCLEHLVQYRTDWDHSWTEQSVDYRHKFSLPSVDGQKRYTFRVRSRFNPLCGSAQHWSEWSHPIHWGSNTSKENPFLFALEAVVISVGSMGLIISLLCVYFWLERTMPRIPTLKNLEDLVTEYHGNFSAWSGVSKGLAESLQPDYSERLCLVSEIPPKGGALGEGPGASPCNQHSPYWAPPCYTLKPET


Molecular target: T1, IL10Rα and IL2Rγ on human primary cells (CD8 T cells, CD4 T cells, monocytes) (human)
Experiment: cell-based or functional assay

| Binder | pSTAT3 (MFI) in CD4 T cells at 0.0001 µM [MFI] | pSTAT3 (MFI) in CD4 T cells at 0.001 µM [MFI] | pSTAT3 (MFI) in CD4 T cells at 0.01 µM [MFI] | pSTAT3 (MFI) in CD4 T cells at 0.1 µM [MFI] | pSTAT3 (MFI) in CD4 T cells at 1 µM [MFI] | pSTAT3 (MFI) in CD4 T cells at 10 µM [MFI] | pSTAT3 (MFI) in CD4 T cells at 100 µM [MFI] | pSTAT3 (MFI) in CD8 T cells at 0.0001 µM [MFI] | pSTAT3 (MFI) in CD8 T cells at 0.001 µM [MFI] | pSTAT3 (MFI) in CD8 T cells at 0.01 µM [MFI] |
| --- | --- | --- | --- | --- | --- | --- | --- | --- | --- | --- |
| hIL10Ra_VHH14-hIL2Rg_VHH19, linker GGSGGS, tag his (bispecific antibody, not shown: small tags and cut ends) QVQLQESGGGSVQAGGSLRLSCGASGYTYSSYCMGWFRQVPGKEREGVAVIDSDGSTSYADSVKGRFTISKDNGKNTLYLQMNSLKPEDTAMYYCAADLGHYRPPCGVLYLGMDYWGKGTQVTVSSGGSGGSQVQLQESGGGSVQAGGSLRLSCTASGFTFDDREMNWYRQAPGNECELVSTISSDGSTYYADSVKGRFTISQDNAKNTVYLQMDSVKPEDTAVYYCAADFMIAIQAPGAGCWGQGTQVTVSS | 13200 | 13900 | 12800 | 13600 | 13000 | 11800 | 10200 | 7960 | 8500 | 7660 |
| hIL10Ra_VHH14-hIL2Rg_VHH19, linker GGGSGGGS, tag his (bispecific antibody, not shown: small tags and cut ends) QVQLQESGGGSVQAGGSLRLSCGASGYTYSSYCMGWFRQVPGKEREGVAVIDSDGSTSYADSVKGRFTISKDNGKNTLYLQMNSLKPEDTAMYYCAADLGHYRPPCGVLYLGMDYWGKGTQVTVSSGGGSGGGSQVQLQESGGGSVQAGGSLRLSCTASGFTFDDREMNWYRQAPGNECELVSTISSDGSTYYADSVKGRFTISQDNAKNTVYLQMDSVKPEDTAVYYCAADFMIAIQAPGAGCWGQGTQVTVSS | 10700 |  | 9550 | 11300 | 12700 | 13200 | 11600 | 7060 | 7520 | 6330 |
| hIL10Ra_VHH14-hIL2Rg_VHH19, linker …, tag his (bispecific antibody, not shown: small tags and cut ends) QVQLQESGGGSVQAGGSLRLSCGASGYTYSSYCMGWFRQVPGKEREGVAVIDSDGSTSYADSVKGRFTISKDNGKNTLYLQMNSLKPEDTAMYYCAADLGHYRPPCGVLYLGMDYWGKGTQVTVSSGGSGGSGGSGQVQLQESGGGSVQAGGSLRLSCTASGFTFDDREMNWYRQAPGNECELVSTISSDGSTYYADSVKGRFTISQDNAKNTVYLQMDSVKPEDTAVYYCAADFMIAIQAPGAGCWGQGTQVTVSS | 12800 | 11800 | 11100 | 10200 | 9970 | 11400 | 10300 | 7840 | 7520 | 6920 |

Same assay, conditions: not given

| Binder | pSTAT3 (MFI) in CD8 T cells at 0.1 µM [MFI] | pSTAT3 (MFI) in CD8 T cells at 1 µM [MFI] | pSTAT3 (MFI) in CD8 T cells at 10 µM [MFI] | pSTAT3 (MFI) in CD8 T cells at 100 µM [MFI] | pSTAT3 (MFI) in monocytes at 0.0001 µM [MFI] | pSTAT3 (MFI) in monocytes at 0.001 µM [MFI] | pSTAT3 (MFI) in monocytes at 0.01 µM [MFI] | pSTAT3 (MFI) in monocytes at 0.1 µM [MFI] | pSTAT3 (MFI) in monocytes at 1 µM [MFI] | pSTAT3 (MFI) in monocytes at 10 µM [MFI] |
| --- | --- | --- | --- | --- | --- | --- | --- | --- | --- | --- |
| hIL10Ra_VHH14-hIL2Rg_VHH19, linker GGSGGS, tag his (bispecific antibody, not shown: small tags and cut ends) QVQLQESGGGSVQAGGSLRLSCGASGYTYSSYCMGWFRQVPGKEREGVAVIDSDGSTSYADSVKGRFTISKDNGKNTLYLQMNSLKPEDTAMYYCAADLGHYRPPCGVLYLGMDYWGKGTQVTVSSGGSGGSQVQLQESGGGSVQAGGSLRLSCTASGFTFDDREMNWYRQAPGNECELVSTISSDGSTYYADSVKGRFTISQDNAKNTVYLQMDSVKPEDTAVYYCAADFMIAIQAPGAGCWGQGTQVTVSS | 8160 | 7720 | 8300 | 7000 | 4220 | 4680 | 4560 | 4470 | 4750 | 4890 |
| hIL10Ra_VHH14-hIL2Rg_VHH19, linker GGGSGGGS, tag his (bispecific antibody, not shown: small tags and cut ends) QVQLQESGGGSVQAGGSLRLSCGASGYTYSSYCMGWFRQVPGKEREGVAVIDSDGSTSYADSVKGRFTISKDNGKNTLYLQMNSLKPEDTAMYYCAADLGHYRPPCGVLYLGMDYWGKGTQVTVSSGGGSGGGSQVQLQESGGGSVQAGGSLRLSCTASGFTFDDREMNWYRQAPGNECELVSTISSDGSTYYADSVKGRFTISQDNAKNTVYLQMDSVKPEDTAVYYCAADFMIAIQAPGAGCWGQGTQVTVSS | 7070 | 7870 | 8430 | 7970 | 4670 | 4820 | 4360 | 4420 | 4760 | 4880 |
| hIL10Ra_VHH14-hIL2Rg_VHH19, linker …, tag his (bispecific antibody, not shown: small tags and cut ends) QVQLQESGGGSVQAGGSLRLSCGASGYTYSSYCMGWFRQVPGKEREGVAVIDSDGSTSYADSVKGRFTISKDNGKNTLYLQMNSLKPEDTAMYYCAADLGHYRPPCGVLYLGMDYWGKGTQVTVSSGGSGGSGGSGQVQLQESGGGSVQAGGSLRLSCTASGFTFDDREMNWYRQAPGNECELVSTISSDGSTYYADSVKGRFTISQDNAKNTVYLQMDSVKPEDTAVYYCAADFMIAIQAPGAGCWGQGTQVTVSS | 6780 | 6480 | 7330 | 6930 | 4230 | 4710 | 4700 | 4690 | 4620 | 4550 |

Same assay, conditions: not given

| Binder | pSTAT3 (MFI) in monocytes at 100 µM [MFI] | pSTAT3 (MFI) in CD4 T cells at 0.0013 µM [MFI] |
| --- | --- | --- |
| hIL10Ra_VHH14-hIL2Rg_VHH19, linker GGSGGS, tag his (bispecific antibody, not shown: small tags and cut ends) QVQLQESGGGSVQAGGSLRLSCGASGYTYSSYCMGWFRQVPGKEREGVAVIDSDGSTSYADSVKGRFTISKDNGKNTLYLQMNSLKPEDTAMYYCAADLGHYRPPCGVLYLGMDYWGKGTQVTVSSGGSGGSQVQLQESGGGSVQAGGSLRLSCTASGFTFDDREMNWYRQAPGNECELVSTISSDGSTYYADSVKGRFTISQDNAKNTVYLQMDSVKPEDTAVYYCAADFMIAIQAPGAGCWGQGTQVTVSS | 4730 |  |
| hIL10Ra_VHH14-hIL2Rg_VHH19, linker GGGSGGGS, tag his (bispecific antibody, not shown: small tags and cut ends) QVQLQESGGGSVQAGGSLRLSCGASGYTYSSYCMGWFRQVPGKEREGVAVIDSDGSTSYADSVKGRFTISKDNGKNTLYLQMNSLKPEDTAMYYCAADLGHYRPPCGVLYLGMDYWGKGTQVTVSSGGGSGGGSQVQLQESGGGSVQAGGSLRLSCTASGFTFDDREMNWYRQAPGNECELVSTISSDGSTYYADSVKGRFTISQDNAKNTVYLQMDSVKPEDTAVYYCAADFMIAIQAPGAGCWGQGTQVTVSS | 4620 | 12000 |
| hIL10Ra_VHH14-hIL2Rg_VHH19, linker …, tag his (bispecific antibody, not shown: small tags and cut ends) QVQLQESGGGSVQAGGSLRLSCGASGYTYSSYCMGWFRQVPGKEREGVAVIDSDGSTSYADSVKGRFTISKDNGKNTLYLQMNSLKPEDTAMYYCAADLGHYRPPCGVLYLGMDYWGKGTQVTVSSGGSGGSGGSGQVQLQESGGGSVQAGGSLRLSCTASGFTFDDREMNWYRQAPGNECELVSTISSDGSTYYADSVKGRFTISQDNAKNTVYLQMDSVKPEDTAVYYCAADFMIAIQAPGAGCWGQGTQVTVSS | 4860 |  |
